The values that follow come from the DeepSol protein solubility set.

The data set can be described thus: soluble on expression in E. coli; label from the status in PepcDB or PDB records.
Regarding “MKQLNFKKIFLNLLWPLLPFTAQAQENNTLYSILSKDNILVSSPSVQNQEEDIVTQMPNRHHKYDKRVHRYRRAWEALIPTHTKLQYAGGMGLLSWGIGWDYGKRGQWETDLLLGFIPRYSSKHFKMTMTLKQNYIPWSIWLGKDFSLEPLTTGIYFNTVFSDDFWTSEPERYPRGYYGFSTRIRTHIFLGQRVRFDVPEKYRKFSKSITAFYEISTCDLYVVSAFNNSYLKPDDYLRLSFGLKFQIF”, the “soluble on expression in E. coli” value is listed as “not soluble”.
As for “MGSDKIHHHHHHAETVVVRFGLFAESIPVADLQKAAETGEFPSSLNLFTRRLSEQQRRTLIGALRMRVPLNVVTISRLLNTQIGTTILNDLSRAVVRKDQSGAKALRASLVLGSTAPQGLSILSFITAYPSRSLEINLPQAFQVAGSLNNAFWRTQQFMLAISPQLDPAKPQISIPFDPSQPGNAQVQVLKLNLNDQKRNRQIPADIYWSTSATQEKPVIIYSHGMGSVRTDLHYLAEHLASHGYIFVALEHPGSNQANTDLATKGKVRLLEPQEFLNRPQDVSFVLDVLEKLNQTTGNPLQGKLATNNTMVIGYSFGGGTALSLAGAELQIAGIRERCQNKLTILSLGETIQCVAQELPEKTYQLRDNRIKQAIALTPTTSLMFGETGLTKVQIPTLIVAASADKTTPALTEQILGFSKIPSPKWLVGIIGGTHLSVKDPSTTLDQVDKPNTPLTGGEIVGEQATDVRQFVKAIALAMVAQLTPEAEKYAVFLTPDYAQLASTESFPFRIVTEIPPQAIPIGKQ”, the “soluble on expression in E. coli” value is on record as “not soluble”.
To “MSVVDMSAEKMTKLEENLQRAVALKKTVDRWRNFHIHCMWQTTLDQRRNLFAALRMKDTKEQELALSNKQLLVVRQAALHELFEKEYQQYQQELNQMGKAFYEERL” belongs “not soluble”; to “MSLNDGRLEIFQEGKPGRRIDEDQVFAAVLDALTKPAEQRTVTVAFREIPPPITAANLDQLGITTLIGVGRSDFTGSAAYRVTNIQAGMRLLHGVLIAPGEEFSFNQTIGRIDRSNGFVEGYAIIQNRTQLEWGGGICQDSTTMFRAAFWAGLPITERWGHSFYISWYDRYAFGPYGDGPGMDATIFTGGPDLKFLNDTGGWLLIQTLVDTHRHLAEVRLYGPDTGRKVLLEGPIITNRTPPPEEPVYVASPDRPVGQPRQSDTARGGMDILFTRIVLGPDGKEIERRQFVTRFKPWPNIFEYNPADEGHHHHHH”, “soluble”.
To “MGSDKIHHHHHHMEKIAVAENLRAYYFIKSGDKTTSIRAVDNVSLHFFENEVYGIAGESGCGKSTLLKVLFGEIKPPLKLVDGEVVFKLDGEEYRINSMSLDQLKKIRWKYVSYVPQGSMSVLNPVRKIRRIFLDVIEEHTSMSREEAFSRIESYFEALGLPVRVLDSYPHQLSGGMRQRVTIALATVLNPKVIFADEPTTALDVVVQRGVIQLLKKIHKEQKNTLVIVTHDMGVHAHLATRIGVMYAGRLIEEAETHEIFKNPLHPYTRFLINSLPRFGDRSRKEGTPGSPPSLANLPSGCPFHPRCPIADQICMEMEPDLIEVARNHKVACWKVGVER” belongs “not soluble”.
As for “PLTSTVNGYRNVGYFAQWGVYGRAFQAKQLDVSGTAKNLTHINYSFGNINNQTLTCFMANKAQGTGPNGSDGAGDAWADFGMGYAADKSVSGKADTWDQPLAGSFNQLKQLKAKNPKLKVMISLGGWTWSKNFSKAAATEASRQKLVSSCIDLYIKGNLPNFEGRGGAGAAAGIFDGIDIDWEWPGTNSGLAGNGVDTVNDRANFKALLAEFRKQLDAYGSTNNKKYVLSAFLPANPADIDAGGWDDPANFKSLDFGSIQGYDLHGAWNPTLTGHQANLYDDPADPRAPSKKFSADKAVKKYLAAGIDPKQLGLGLAAYGRGWTGAKNVSPWGPATDGAPGTYETANEDYDKLKTLGTDHYDAATGSAWRYDGTQWWSYDNIATTKQKTDYIVSKGLGGGMWWELSGDRNGELVGAMSDKFRAAAPGPVTEAAPP”, the “soluble on expression in E. coli” value is recorded as “soluble”.
Regarding “MVLRKLSTYRQKRDFEKTPEPSGEAAVASSKQRRFVIQKHDASRLHYDFRLEFDGVFKSWAVTKGPSLDPHDKRLAVEVEDHPLDYGDFEGTIPEGQYGGGTVMLWDRGTWEADDPERGFKKGDLKFTLHGEKLHGSWVLVRMRNDRDGGKRTNWLLIKHRDEYAREGEDILAEDKSVASGRAMAQIAEGKGLEHHHHHH”, the “soluble on expression in E. coli” value is reported as “not soluble”.
Under “MGSDKIHHHHHHMKLYVSFAARIRAMIDEGVLRPGDKIFSVRQASQKYGLSISTVLRGYLLLEQEGIISSHPQSGYYVTPRKRLQRHETSPLSKDINLSEVDASKLVLTTLKSIREFGTVPLGSPFPDPQLFPLKKIHQYEKALTDDEGEWGVLSDLPPGNEMLRQQIARRYLANGMDVSPDDIVITHGATEAITLCLQAVAKAGDVIALESPGYYALAHTVERLGMKVAELRTDPDSGIDLDALRATAGNVRIAAVILTANFQNPLGFVMPDAKKQALVAFLEEQQIPLIEDDVYGELYFSETAPKPAKAFDRSGLVLHCASFSKSLAPGYRVGWTVAGRYRQEVERLMFLNSLSMPSAPQIAIAKFMQRDSFERHLKQLRHTLRSQYVLIRNVIEESFPAGTQLSAPKGGYVIWVNLPAPLDALKLYRAAIDNGITVAPGTIFSRKKDLTHYIRLNFSHLWTLAIEQAVRQVGALACGMLADAGNGEA” stands “not soluble”; under “YTIKEAERGVVTRFGKFSHLVEPGLNWKPTFIDEVKPVNVEAVRELAASGVMLTSDENVVRVEMNVQYRVTNPEKYLYSVTSPDDSLRQATDSALRGVIGKYTMDRILTEGRTVIRSDTQRELEETIRPYDMGITLLDVNFQAARPPEEVKAAFDDAIAARENEQQYIREAEAYSNEVQPRANGQAQRILEEARAYKAQTILEAQGEVARFAKLLPEYKAAPEITRERLYIETMEKVLGNTRKVLVNDKGGNLMVLPLDQMLKGGNAPAAKSDNGASNLLRLPPASSSTTSGASNTSSTSQGDIMDQRRANAQRNDYQRQGE”, “not soluble”; under “GPLDLSRDECKRILRKLELEAYAGVISALRAQGDLTKEKKDLLGELSKVLSISTERHRAEVRRAVNDERLTTIAHNMSGPNSSSEWSIEGRRLVPLMPRLVPQTAFTVTANAVANAAIQHNASLPVPAETGSK”, “soluble”.
To “QCYHGNGQSYRGTFSTTVTGRTCQSWSSMTPHRHQRTPENYPNDGLTMNYCRNPDADTGPWCFTMDPSIRREYCNLTRC” belongs “soluble”; to “MVVYGKQKYIMKRCFYMNKKLKTEAVDHLFQAILTLKSTEECYSFFEDVCTVNELLSFSQRYEVAKMLREKRTYLEIADKTGASTATISRVNRSLNYGNDGYDMVFKRLEDQAAEDNEA”, “not soluble”.
As for “MAGGPSALTLIARTSATGAQPLSLRARFPRTRPPMKKIPLAAADPDRLDTWVKYREGLCGECNATCCTLPVEVRIDDLIRMRLVDEFEREEPAKRIAKRLEKDGVIEHFNHKREIFTLTRMANGDCLYLDRKTRLCTIYARRPDTCRNHPRIGPRPGYCAYRPRLEHHHHHH”, the “soluble on expression in E. coli” value is “not soluble”.
To “MSLSSCEVLTSLGERMILIRGLTRVITFDDQERELEDADILIDGPKIVAVGKDLSDRSVSRTIDGRGMIALPGLINSHQHLYEGAMRAIPQLERVTMASWLEGVLTRSAGWWRDGKFGPDVIREVARAVLLESLLGGITTVADQHLFFPGATADSYIDATIEAATDLGIRFHAARSSMTLGKSEGGFCDDLFVEPVDRVVQHCLGLIDQYHEPEPFGMVRIALGPCGVPYDKPELFEAFAQMAADYDVRLHTHFYEPLDAGMSDHLYGMTPWRFLEKHGWASDRVWLAHAVVPPREEIPEFADAGVAIAHLIAPDLRMGWGLAPIREYLDAGITVGFGTTGSASNDGGNLLGDLRLAALAHRPADPNEPEKWLSARELLRMATRGSAECLGRPDLGVLEEGRAADIACWRLDGVDRVGVHDPAIGLIMTGLSDRASLVVVNGQVLVENERPVLADLERIVANTTALIPKNLEGHHHHHH” belongs “not soluble”.
Regarding “MKLIRKYHMIPYENGSEYESAKRFLENILSASDVDPTTKCRFYQDVLYRIRNHPELPIVTEELFDVIQENLQQQNDNQKRNVKLERRNLKYEVIPEKRESYQEKYYESPPVYKAENEQLFDDVTYHNDGINHLKPRKNVYIKEEPEDEDYHMEYEKIPEINMEQNVNELFMEPQKHAPGKIKKSKKQKKDGTLSRPLGKKEKKSVQYATSNKRQKFDLKRGKSMNNVKPRKLYKLQLDEEDEDEEPMVDETPQNTEISIKKRPFQQDSTKNLNKRQKFDLKRRKNMSRVRPNKIYKMQNLKRNISSTIPDNGTNIPAAKRRVLHGSGSAPPPGSRVYCRLWKF”, the “soluble on expression in E. coli” value is recorded as “not soluble”.
Under “MSLEALKEVAGEAEGEKSAVITHRNADPDAVGAALVVREVLRALRMNPCLYSPEGISRQSKRLLEAVGEEFGPLCSPDENPLIAVVVDAANLSQIAGAESLFRAARLKVVIDHHERGSIHEEADVALVDPGAGSSSELAVKTAVEAGTPLRPSVATAALGGIVYDTGRFLRASKLSFEAAAHLLSMGADYGKVLEAGRQRGRRDRGDLSLRLAKLKAFSRLKIGRACSELLIAVTHIGSFESDVAKSLVDEAADVAVAVAERTSEFRLSVRVSPLALEKGVTARAIASMLAEKFGGEGGGHDEAGMAHIPYTAAFSAEDMAVKAFNLISGRLGWMCVKTLEKGEGGSHHHHHH” stands “soluble”; under “MGSDKIHHHHHHMKKVLVAGATGYLGRYAVQEFKNRGYWVRALVRNPEKFKKPGPFFAPEIDTLVDDVVFGDATKPETIAGLCDGIDVVFSSLGMIKPDFEHDNFDVDYQGNMNILAEALKAGVKKFVYVSVFDAHRMMNIPNVQAHEKFVRELQAAKIESTIIRPNGFFSEIGQFVARARRGFMLWIGDGYNRQNPIHGADLAKVCADAVDSSEKEIEVGGPEVFTYREMVDLAIEIAGTQPVQVSLPFWLADGIVGVLGLFNRDVHDVALFATTLSKMDFVSPKYGTHRLRDFFNECKLLPL”, “not soluble”.
To “MGSDKIHHHHHHMSLTPVLDKIDSDVSAATDRLLELLRIPSISTDPAYKADCDAAADWLVKDLNSIGIKAEKRETPGHPMVVGHVGEENTKGPHLLFYGHYDVQPVDPLNLWNTPPFEPQLEETPNGTVIRGRGASDDKGQLMTFVEACRAWQAVHGTLPCRITFFFEGEEESGSPSLIPFLEAAKEELSADIALICDTSMVARGVPLVASQLRGMMKDEFTLIGPKIDLHSGHYGGPGLNPLREISHIIASFHDPDTGAVAVEGFYEGVPEVPADILRQWEGCGFDEKDYLSNAGYTEAHGEKKYSTLEQQWARPTLEINGLWGGYQGAGTKTVIPSEAHCKITCRLVGDMDPADLRQKIRKHVEDRLPTDCTVKWDLDLDGAPAYVIDTTRPEFEAARGALTEEWNREAVFSGMGGSIPVAGYFKSILGMDAMLIGFANEDDAIHSPNEKYDLESFHKGIRSWARVLDALSKA” belongs “not soluble”; to “IPELKDHLRIFRPRKLTLKGYRQHWVVFKETTLSYYKSQDEAPGDPIQQLNLKGCEVVPDVNVSGQKFCIKLLVPSPEGMSEIYLRCQDEQQYARWMAGCRLASKGRTMADSSYTSEVQAILAFLSLQRT”, “soluble”.
To “TPGFSLGFIVNMRLHDHFDLRLLPTVGFYSRSIQYDFIKTSEIQTIESTFVEFPLLLKYKSQRRNNSRLYVTGGFKASIEAGAKKKQRKSTDLRTNGFDLCLDMGVGMDIYCPLFKFSPEIRYSHGLLNLLNNDPNVYSSSLSRLSSNTISLFFNFE” belongs “not soluble”.
In the case of “MGHHHHHHSHMQENQQITKKEQYNLNKLQKRLRRNVGEAIADFNMIEEGDRIMVCLSGGKDSYTMLEILRNLQQSAPINFSLVAVNLDQKQPGFPEHVLPEYLEKLGVEYKIVEENTYGIVKEKIPEGKTTCSLCSRLRRGILYRTATELGATKIALGHHRDDILQTLFLNMFYGGKMKGMPPKLMSDDGKHIVIRPLAYCREKDIQRFADAKAFPIIPCNLCGSQPNLQRQVIADMLRDWDKRYPGRIETMFSAMQNVVPSHLCDTNLFDFKGITHGSEVVNGGDLAFDREEIPLQPACWQPEEDENQLDELRLNVVEVK”, the “soluble on expression in E. coli” value is “soluble”.
